Drawing on US20060110796A1, this text covers fold signal over wild-type myoglobin and fold signal increase for glycomyoglobin versus tyrosine-myoglobin for three substances.

Experiment [1] has as its target glycomyoglobin with β-GlcNAc-serine at position 4 (Gly4TAG mutant myoglobin, C-terminal His6 tag) (UniProt P02185). Description: ELISA-like lectin binding assay; 200 ng myoglobin immobilized, biotinylated BSII, streptavidin-alkaline phosphatase, pNPP, A405.
For experiment [2], the target named is glycomyoglobin with GalNAc-α-threonine at position 4 (myoglobin 4TAG mutant, C-terminal 6xHis tag) (UniProt P02185). Briefly: enzyme-linked lectin-binding assay (ELLA); 600 ng myoglobin on plate, biotinylated lectin 10 µg/mL, streptavidin-AP, pNPP, 405 nm; reference is an equivalent concentration of tyrosine-myoglobin.
glycomyoglobin with GalNAc-α-threonine at position 4 (myoglobin 4TAG mutant, C-terminal 6xHis tag), sequence (P02185 other isoform, or with tags, fused parts or gaps mutant): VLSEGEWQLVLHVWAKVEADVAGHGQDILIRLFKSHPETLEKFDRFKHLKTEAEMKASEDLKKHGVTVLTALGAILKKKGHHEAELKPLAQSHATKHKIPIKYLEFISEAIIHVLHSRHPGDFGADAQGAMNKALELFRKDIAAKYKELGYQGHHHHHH

glycomyoglobin with β-GlcNAc-serine at position 4 (Gly4TAG mutant myoglobin, C-terminal His6 tag), sequence (P02185 other isoform, or with tags, fused parts or gaps mutant): as above
Vicia Villosa lectin (VVL), biotinylated conjugate, sequence (P56625 whole entry): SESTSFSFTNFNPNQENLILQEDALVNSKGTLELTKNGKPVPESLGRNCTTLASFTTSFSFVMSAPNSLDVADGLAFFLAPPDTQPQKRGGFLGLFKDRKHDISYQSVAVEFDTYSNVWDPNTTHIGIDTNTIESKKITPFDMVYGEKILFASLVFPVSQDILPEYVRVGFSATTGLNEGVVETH

Substance “Bandeiraea simplicifolia II (BSII) lectin, biotinylated” registered a fold signal over wild-type myoglobin in experiment [1] greater than 200 fold.
On to “Dolichos Biflorus lectin (DBL), biotinylated conjugate (from UniProt P05045 23-275)”, for which the fold signal increase for glycomyoglobin versus tyrosine-myoglobin in experiment [2] worked out at 5 fold.
Turning to “Vicia Villosa lectin (VVL), biotinylated conjugate (from UniProt P56625 1-185)”, the fold signal increase for glycomyoglobin versus tyrosine-myoglobin in experiment [2] was 10 fold.
